Legend:
[1] = target: KpnI restriction endonuclease (UniProt P25237 1-218); test: cleavage inhibition; 20 nM DNA probe N10; Kd EMSA: 10 mM Bis-Tris-Propane-HCl pH 7, 10 mM MgCl2, 100 ug/ml BSA, 37 C, 30 min; screen EMSA in selection buffers, 37 C: 10 mM HEPES pH 7.5 with 400 mM NaCl/; settings: protein: commercial, chain copies: 2
[2] = target: T1, BamHI(E111A) restriction endonuclease (UniProt P23940 1-213, E111A); test: EMSA; 20 nM protein; Kd EMSA: 10 mM Bis-Tris-Propane-HCl pH 7, 10 mM MgCl2, 100 ug/ml BSA, 37 C, 30 min; screen EMSA in selection buffers, 37 C: 10 mM HEPES pH 7.5 with 400 mM NaCl/; settings: protein: commercial; chain copies: 2; label: 32P; hairpin
T1 sequence: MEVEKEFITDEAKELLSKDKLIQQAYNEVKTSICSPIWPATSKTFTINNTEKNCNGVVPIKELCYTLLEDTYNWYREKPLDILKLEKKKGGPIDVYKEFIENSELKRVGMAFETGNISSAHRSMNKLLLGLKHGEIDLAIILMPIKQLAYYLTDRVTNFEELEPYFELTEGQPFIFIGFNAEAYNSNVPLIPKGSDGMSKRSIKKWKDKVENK

KpnI restriction endonuclease, sequence (P25237 whole entry): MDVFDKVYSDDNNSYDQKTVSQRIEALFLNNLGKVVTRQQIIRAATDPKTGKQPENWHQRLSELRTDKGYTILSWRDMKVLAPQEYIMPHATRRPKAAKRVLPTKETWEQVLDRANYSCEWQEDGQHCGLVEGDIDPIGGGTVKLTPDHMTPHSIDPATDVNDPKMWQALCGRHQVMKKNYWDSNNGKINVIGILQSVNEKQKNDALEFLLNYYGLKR

GGGUCGGAAAAGCGUAACCGCGGCCA (structured_RNA) [20_26 nt]
IC50 [1]: 77000 nM

B1: anti-KpnI aptamer 20 (structured_RNA)
RNA: GGGAUAUCCUUCAUGAUUCGGAAAAGCGUAACCGCGGCCAAUCAUGCAUGAAGCGUUCCAUAUUUUU
binding result [2]: no binding | IC50 ([1]; label: 32P, hairpin): 36.1 ± 3.9 nM

B2: anti-KpnI aptamer 29 (16/23/29) (structured_RNA)
RNA: GGGAUAUCCCUACAUGAUAAUCGGGUGAGUAAGGCCUAAACAUCAUGCAUGAAGCGUUCCAUAUUUUU
binding result [2]: no binding | IC50 ([1]; label: 32P, hairpin): 153 ± 11 nM

B3: anti-KpnI aptamer 24 (structured_RNA)
RNA: GGGAUAUCCUUCAUGGUGUGAUUAAACGUAAUCUCAAUCGAUCAUGCAUGAAGCGUUCCAUAUUUUU
binding result [2]: no binding

B4: anti-KpnI aptamer 30 (structured_RNA)
RNA: GGGAUAUCCUUCAUGAUUCGGAAAAGCGUAACCGCGGCCGAUCAUGCAUGAAGCGUUCCAUAUUUUU
binding result [2]: no binding | IC50 ([1]; label: 32P, hairpin): 23.1 ± 0.8 nM

GGGCAUGAUUCGGAAAAGCGUAACCGCGGCCAAUCAUG (structured_RNA) [aptamer 20s (38 nt)]
IC50 ([1]; hairpin): 13 ± 1.5 nM

GGGCAUGAUUCGGAUAUGCGUAACCGCGGCCAAUCAUG (structured_RNA) [20_AAA]
IC50 [1]: 104000 nM

From paper PMC4551934, “RNA aptamer inhibitors of a restriction endonuclease”
